Results on seven molecules are retold here after paper PMC7329908, “Glucocorticoid receptor complexes form cooperatively with the Hsp90 co-chaperones Pp5 and FKBPs” (Scientific Reports, 2020).

Common to all, as to settings: both partners purified
The target of assay [1] is T1, C. elegans Hsp90 (HSP-90) (C. elegans, UniProt Q18688 1-702).
T1 construct: HSP-90 (Hsp90 homolog), C. elegans; also called nematode HSP-90; nematode Hsp90; source: E. coli BL21 (DE3), purified (HisTrap, Resource Q, Superdex size exclusion)
As to the kind of experiment: AUC; sedimentation velocity with fluorescence detection; 600 nM ATTO 488-labelled GRLBDm, 3 μM unlabelled chaperones and cofactors, 2 mM ATPγS; 20 mM HEPES, 20 mM KCl, 5 mM MgCl2, 50 μM dexamethasone, pH 7.5; 42,000 rpm, 20 °C.

For assay [2], the target named is T2, human Hsp90β (human, UniProt P08238 1-724).
T2 construct: Hsp90β, human; source: E. coli BL21 (DE3), purified (HisTrap, Resource Q, Superdex size exclusion)
T2 sequence (P08238 whole entry): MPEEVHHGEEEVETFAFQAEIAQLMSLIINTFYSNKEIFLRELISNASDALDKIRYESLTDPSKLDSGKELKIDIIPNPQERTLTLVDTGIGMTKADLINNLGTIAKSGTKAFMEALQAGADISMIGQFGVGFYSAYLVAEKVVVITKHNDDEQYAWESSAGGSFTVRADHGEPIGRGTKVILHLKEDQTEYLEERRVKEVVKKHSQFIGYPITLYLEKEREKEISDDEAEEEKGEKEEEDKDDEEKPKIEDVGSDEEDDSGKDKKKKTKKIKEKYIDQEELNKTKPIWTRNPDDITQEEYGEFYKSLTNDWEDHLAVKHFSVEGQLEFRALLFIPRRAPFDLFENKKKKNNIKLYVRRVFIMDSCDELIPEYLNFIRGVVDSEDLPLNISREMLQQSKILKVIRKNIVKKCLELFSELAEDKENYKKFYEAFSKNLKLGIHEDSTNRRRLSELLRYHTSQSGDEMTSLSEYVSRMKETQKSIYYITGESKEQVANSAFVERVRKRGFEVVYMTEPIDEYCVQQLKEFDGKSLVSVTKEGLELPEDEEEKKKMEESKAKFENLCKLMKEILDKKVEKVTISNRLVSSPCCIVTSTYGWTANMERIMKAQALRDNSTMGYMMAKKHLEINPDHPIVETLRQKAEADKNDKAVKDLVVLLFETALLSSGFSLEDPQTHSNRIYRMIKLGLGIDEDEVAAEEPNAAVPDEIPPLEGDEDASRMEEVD
The experiment in a line: AUC; sedimentation velocity with fluorescence detection; 600 nM ATTO 488-labelled GRLBDm, 3 μM unlabelled chaperones and cofactors, no nucleotide; 20 mM HEPES, 20 mM KCl, 5 mM MgCl2, 50 μM dexamethasone, pH 7.5; 42,000 rpm, 20 °C.

The target in assay [3] is T1, C. elegans Hsp90 (HSP-90). Described as above.
The target of assay [4] is T2, human Hsp90β. As to the kind of experiment: AUC; sedimentation velocity with fluorescence detection; 600 nM ATTO 488-labelled GRLBDm, 3 μM unlabelled chaperones and cofactors, 2 mM ATPγS; 20 mM HEPES, 20 mM KCl, 5 mM MgCl2, 50 μM dexamethasone, pH 7.5; 42,000 rpm, 20 °C.

B1: PPH-5, nematode protein phosphatase, homolog of human Pp5 (enzyme, C. elegans, UniProt Q9NES8 1-496, looked up)
chain: MAATITDDIVATVLESIEEKSYEDEKEKAGMIKDEANQFFKDQVYDVAADLYSVAIEIHPTAVLYGNRAQAYLKKELYGSALEDADNAIAIDPSYVKGFYRRATANMALGRFKKALTDYQAVVKVCPNDKDARAKFDECSKIVRRQKFEAAISTDHDKKTVAETLDINAMAIEDSYDGPRLEDKITKEFVLQLIKTFKNQQKLHKKYAFKMLLEFYNYVKSLPTMVEITVPTGKKFTICGDVHGQFYDLCNIFEINGYPSETNPYLFNGDFVDRGSFSVETIFTMIGFKLLYPNHFFMSRGNHESDVMNKMYGFEGEVKAKYTQQMCDMFTETFCWLPLCHLINEKIFVCHGGLFKEDGVTLEDIRKTDRNRQPPDEGIMCDLLWSDPQPINGRSPSKRGVGCQFGPDVTSKWCETNGIEYVVRSHEVKPEGYEMHHNGQCFTVFSAPNYCDQMNNKGAFITITGDNLTPRFTPFDAVPHPKLPPMAYANSLFGFN
notes: PPH-5, TPR-containing serine/threonine phosphatase, C. elegans; source: E. coli BL21 (DE3), purified (HisTrap, Resource Q, Superdex size exclusion)
Take B1: in assay [1], the binding result is on record as “binds”.

B2: human Fkbp52 (enzyme, UniProt Q02790 1-459, looked up)
chain: MTAEEMKATESGAQSAPLPMEGVDISPKQDEGVLKVIKREGTGTEMPMIGDRVFVHYTGWLLDGTKFDSSLDRKDKFSFDLGKGEVIKAWDIAIATMKVGEVCHITCKPEYAYGSAGSPPKIPPNATLVFEVELFEFKGEDLTEEEDGGIIRRIQTRGEGYAKPNEGAIVEVALEGYYKDKLFDQRELRFEIGEGENLDLPYGLERAIQRMEKGEHSIVYLKPSYAFGSVGKEKFQIPPNAELKYELHLKSFEKAKESWEMNSEEKLEQSTIVKERGTVYFKEGKYKQALLQYKKIVSWLEYESSFSNEEAQKAQALRLASHLNLAMCHLKLQAFSAAIESCNKALELDSNNEKGLFRRGEAHLAVNDFELARADFQKVLQLYPNNKAAKTQLAVCQQRIRRQLAREKKLYANMFERLAEEENKAKAEASSGDHPTDTEMKEEQKSNTAGSQSQVETEA
notes: Fkbp52, human PPIase; source: E. coli BL21 (DE3), purified (HisTrap, Resource Q, Superdex size exclusion)
For B2, the binding result with human Hsp90β [2] is recorded as “binds”.

B3: FKB-6, nematode large prolyl isomerase (FK1, FK2 and TPR domains) (enzyme, C. elegans, UniProt O45418 1-431, looked up)
chain: MSGEKIDITPKKDGGVLKLIKKEGQGVVKPTTGTTVKVHYVGTLENGTKFDSSRDRGDQFSFNLGRGNVIKGWDLGVATMTKGEVAEFTIRSDYGYGDAGSPPKIPGGATLIFEVELFEWSAEDISPDRDGTILRTIIVEGSKNSFPNDTSKVLAHCVGTYQGTEFYNREVNFHIGEGSEEGLPEGVERALRRFQLGEKSKIEIRGHKYTYGNSPPAGSNIPVNATLEFTIFLKEFEKVPATWEMTAEEKLDAAKQAKDRGTMYLQKGNLKLAYNKYKRAEEVLEYEKSTDPEKMAERETILNGAYLNLSLVCSKQNEQLECIKWCDKVLETKPGNVKALYRKATALLTMNEVRDAMKLFEKIVEVEPENKAAAQQIIVCRNTIREQNERDKKRFKNLFAKISTEEDKPTNTVEDEDEIVASTSGSSTSNA
notes: FKB-6, peptidyl prolyl isomerase with FK1, FK2 and C-terminal TPR region, C. elegans; source: E. coli BL21 (DE3), purified (HisTrap, Resource Q, Superdex size exclusion)
As for B3, the binding result in assay [1] is “binds”.

B4: STI-1, nematode TPR cofactor of HSP-90 (homolog of human Hop) (natural protein, C. elegans, UniProt O16259 1-320, looked up)
chain: MTDAAIAEKDLGNAAYKQKDFEKAHVHYDKAIELDPSNITFYNNKAAVYFEEKKFAECVQFCEKAVEVGRETRADYKLIAKAMSRAGNAFQKQNDLSLAVQWFHRSLSEFRDPELVKKVKELEKQLKAAERLAYINPELAQEEKNKGNEYFKKGDYPTAMRHYNEAVKRDPENAILYSNRAACLTKLMEFQRALDDCDTCIRLDSKFIKGYIRKAACLVAMREWSKAQRAYEDALQVDPSNEEAREGVRNCLRSNDEDPEKAKERSLADPEVQEILRDPGMRMILEQMSNDPGAVREHLKNPEIFQKLMKLRDAGVIQMR
notes: STI-1, C. elegans; source: E. coli BL21 (DE3), purified (HisTrap, Resource Q, Superdex size exclusion)
Consider B4, for which the binding result in assay [3] is listed as “binds”.

B5: human Fkbp51 (enzyme, UniProt Q13451 1-457, looked up)
chain: MTTDEGAKNNEESPTATVAEQGEDITSKKDRGVLKIVKRVGNGEETPMIGDKVYVHYKGKLSNGKKFDSSHDRNEPFVFSLGKGQVIKAWDIGVATMKKGEICHLLCKPEYAYGSAGSLPKIPSNATLFFEIELLDFKGEDLFEDGGIIRRTKRKGEGYSNPNEGATVEIHLEGRCGGRMFDCRDVAFTVGEGEDHDIPIGIDKALEKMQREEQCILYLGPRYGFGEAGKPKFGIEPNAELIYEVTLKSFEKAKESWEMDTKEKLEQAAIVKEKGTVYFKGGKYMQAVIQYGKIVSWLEMEYGLSEKESKASESFLLAAFLNLAMCYLKLREYTKAVECCDKALGLDSANEKGLYRRGEAQLLMNEFESAKGDFEKVLEVNPQNKAARLQISMCQKKAKEHNERDRRIYANMFKKFAEQDAKEEANKAMGKKTSEGVTNEKGTDSQAMEEEKPEGHV
notes: Fkbp51, human PPIase; source: E. coli BL21 (DE3), purified (HisTrap, Resource Q, Superdex size exclusion)
For B5, in the assay with human Hsp90β [2], the binding result is “binds”.

B6: human p23 (natural protein, UniProt Q15185 1-160, looked up)
chain: MQPASAKWYDRRDYVFIEFCVEDSKDVNVNFEKSKLTFSCLGGSDNFKHLNEIDLFHCIDPNDSKHKRTDRSILCCLRKGESGQSWPRLTKERAKLNWLSVDFNNWKDWEDDSDEDMSNFDRFSEMMNNMGGDEDVDLPEVDGADDDSQDSDDEKMPDLE
notes: p23 co-chaperone, human; source: E. coli BL21 (DE3), purified (HisTrap, Resource Q, Superdex size exclusion)
Turning to B6, the binding result in the assay with human Hsp90β [4] is “binds”.

B7: human protein phosphatase Pp5 (enzyme, UniProt P53041 1-499, looked up)
chain: MAMAEGERTECAEPPRDEPPADGALKRAEELKTQANDYFKAKDYENAIKFYSQAIELNPSNAIYYGNRSLAYLRTECYGYALGDATRAIELDKKYIKGYYRRAASNMALGKFRAALRDYETVVKVKPHDKDAKMKYQECNKIVKQKAFERAIAGDEHKRSVVDSLDIESMTIEDEYSGPKLEDGKVTISFMKELMQWYKDQKKLHRKCAYQILVQVKEVLSKLSTLVETTLKETEKITVCGDTHGQFYDLLNIFELNGLPSETNPYIFNGDFVDRGSFSVEVILTLFGFKLLYPDHFHLLRGNHETDNMNQIYGFEGEVKAKYTAQMYELFSEVFEWLPLAQCINGKVLIMHGGLFSEDGVTLDDIRKIERNRQPPDSGPMCDLLWSDPQPQNGRSISKRGVSCQFGPDVTKAFLEENNLDYIIRSHEVKAEGYEVAHGGRCVTVFSAPNYCDQMGNKASYIHLQGSDLRPQFHQFTAVPHPNVKPMAYANTLLQLGMM
notes: Pp5 (serine/threonine protein phosphatase 5), human; source: E. coli BL21 (DE3), purified (HisTrap, Resource Q, Superdex size exclusion)
Turning to B7, the binding result with human Hsp90β [2] is on record as “binds”.
